Assay results as given in patent US20200216532A1 (Ablynx, published 2020).
Residue numbers refer to the chain shown, from its start. Numbers in names are those of the source.

B1: SEQ ID NO: 42 (VHH)
chain: EVQLVESGGGLVQPGGSLRLSCAASGRTFSYNPMGWFRQAPGKGRELVAAISRTGGSTYYPDSVEGRFTISRDNAKRMVYLQMNSLRAEDTAVYYCAAAGVRAEDGRVRTLPSEYTFWGQGTQVTVSSAAAEVQLVESGGGLVQPGGSLRLSCAASGRTFSYNPMGWFRQAPGKGRELVAAISRTGGSTYYPDSVEGRFTISRDNAKRMVYLQMNSLRAEDTAVYYCAAAGVRAEDGRVRTLPSEYTFWGQGTQVTVSSA
notes: Ex. 8
B2: SEQ ID NO: 38 (VHH)
chain: EVQLVESGGGLVQPGGSLRLSCAASGFTFSSYAMSWVRQAPGKGLEWVSGIKSSGDSTRYAGSVKGRFTISRDNAKNTLYLQMNSLRPEDTAVYYCAKSRVSRTGLYTYDNRGQGTLVTVSSGGGGSGGGGSGGGGSGGGGSEVQLVESGGGLVQPGGSLRLSCAASGRTFNNYAMGWFRQAPGKEREFVAAITRSGVRSGVSAIYGDSVKDRFTISRDNAKNTLYLQMNSLRPEDTAVYYCAASAIGSGALRRFEYDYSGQGTLVTVSSA
notes: Ex. 8
B3: SEQ ID NO: 43 (VHH)
chain: DVQLVESGGGLVQPGGSLRLSCAASGFILDYYAIGWFRQAPGKEREGVLCIDASDDITYYADSVKGRFTISRDNSKNTVYLQMNSLRPEDTAVYYCATPIGLSSSCLLEYDYDYWGQGTLVTVSSGGGGSGGGSEVQLLESGGGLVQPGGSLRLSCAASGFTFRSFGMSWVRQAPGKGPEWVSSISGSGSDTLYADSVKGRFTISRDNSKNTLYLQMNSLRPEDTAVYYCTIGGSLSRSSQGTLVTVSSA
notes: Ex. 8
B4: SEQ ID NO: 79 (VHH)
VHH: EVQLVESGGGLVQPGGSLRLSCAASRSIGRLDRMGWYRHRPGEPRELVATITGGSSINYGDSVKGRFTISIDNSKNTVYLQMNSLRPEDTAVYYCNFNKYVTSRDTWGQGTLVTVSS
notes: Ex. 8
B5: SEQ ID NO: 74 (VHH)
VHH: B4 VHH
notes: Ex. 8
B6: SEQ ID NO: 71 (VHH)
VHH: B4 VHH with S117G
notes: Ex. 8
B7: SEQ ID NO: 75 (VHH)
VHH: B4 VHH
notes: Ex. 8
B8: SEQ ID NO: 76 (VHH)
VHH: B4 VHH
notes: Ex. 8
B9: SEQ ID NO: 70 (VHH)
VHH: B4 VHH with T114Q
notes: Ex. 8
B10: SEQ ID NO: 77 (VHH)
VHH: B4 VHH
notes: Ex. 8
B11: SEQ ID NO: 80 (VHH)
VHH: B4 VHH with T114Q, S116G, S117G
notes: Ex. 8
B12: SEQ ID NO: 78 (VHH)
VHH: B4 VHH with Q13R
notes: Ex. 8
B13: SEQ ID NO: 88 (VHH)
VHH: B4 VHH with L11S, T114Q
notes: Ex. 8; L11S, T110Q
B14: SEQ ID NO: 84 (VHH)
VHH: B4 VHH with S116G
notes: Ex. 8
B15: SEQ ID NO: 67 (VHH)
VHH: B4 VHH with R86K
notes: Ex. 8
B16: SEQ ID NO: 81 (VHH)
VHH: B4 VHH with L11V
notes: Ex. 8
B17: SEQ ID NO: 83 (VHH)
VHH: B4 VHH with T90A
notes: Ex. 8
B18: SEQ ID NO: 89 (VHH)
VHH: B4 VHH with L11S, P14A, T114Q, S116G, S117G
notes: Ex. 8
B19: SEQ ID NO: 69 (VHH)
VHH: B4 VHH with L112Q
notes: Ex. 8
B20: SEQ ID NO: 72 (VHH)
VHH: B4 VHH with S116G, S117G
notes: Ex. 8
B21: SEQ ID NO: 68 (VHH)
VHH: B4 VHH with P14A, L112Q
notes: Ex. 8
B22: SEQ ID NO: 73 (VHH)
VHH: B4 VHH with S116G, S117G
notes: Ex. 8; S112G, S113G
B23: SEQ ID NO: 86 (VHH)
VHH: B4 VHH with L11S, T114Q
notes: Ex. 8
B24: SEQ ID NO: 82 (VHH)
VHH: B4 VHH with P87A
notes: Ex. 8
B25: SEQ ID NO: 65 (VHH)
VHH: B4 VHH with P14A
notes: Ex. 8
B26: SEQ ID NO: 66 (VHH)
VHH: B4 VHH with L11S
notes: Ex. 8
B27: SEQ ID NO: 87 (VHH)
VHH: B4 VHH with L11S, S116G, S117G
notes: Ex. 8
B28: SEQ ID NO: 85 (VHH)
VHH: B4 VHH with L11S, T114Q, S116G, S117G
notes: Ex. 8
B29: SEQ ID NO: 45 (VHH)
VHH: B4 VHH with P14A, P41T, S62F, S74A, S84N, R86K, L112Q
notes: Ex. 8; no addition
B30: SEQ ID NO: 48 (VHH)
VHH: EVQLVESGGGLVQPGGSLRLSCIASGLPFSTKSMGWFRQAPGKEREFVARISPGGTSRYYGDFVKGRFAISRDNAKNTTWLQMNSLKAEDTAVYYCASGERSTYIGSNYYRTNEYDYWGTGTQVTVSS
notes: Ex. 8
B31: SEQ ID NO: 49 (VHH)
VHH: EVQLLESGGGLVQPGGSLRLSCAASGLPFSTKSMGWFRQAPGKGREFVSRISPGGTSRYYGDFVKGRFTISRDNSKNTLYLQMNSLRAEDTAVYYCASGERSTYIGSNYYRTNEYDYWGQGTLVTVSS
notes: Ex. 8; V5L, I23A, E44G, A49S, A68T, A74S, T78L, W79Y, K83R, T110Q, Q108L
B32: SEQ ID NO: 47 (VHH)
VHH: EVQLVESGGGLVQPGGSLRLSCAASGSVFKINVMAWYRQAPGKGRELVAGIISGGSTSYADSVKGRFTISRDNAKNTLYLQMNSLRPEDTAVYYCAFITTESDYDLGRRYWGQGTLVTVSS
notes: Ex. 8

The binders below were run against T1, purified interference factor(s), Donor B (assay: SPR, interference factor immobilized).
T1 construct: also called interference in serum from Donor B

Binder | % of binding of reference (=100%) [%]
B1 | 4
B2 | 25
B3 | 20
B4 | 17
B5 | 41
B6 | 105
B7 | 11
B8 | 17
B9 | 105
B10 | 12
B11 | 5
B12 | 96
B13 | 5
B14 | 50
B15 | 117
B16 | 50
B17 | 73
B18 | 5
B19 | 120
B20 | 47
B21 | 115
B22 | 8
B23 | 6
B24 | 80
B25 | 121
B26 | 29
B27 | 5
B28 | 5

What follows are binders tested against T2, purified interference factor(s), Donor C (assay: SPR, interference factor immobilized).
T2 construct: also called interference in serum from Donor C

Binder | % of binding of reference (=100%) [%]
B2 | 7
B4 | 13
B5 | 33
B6 | 87
B7 | 16
B8 | 20
B9 | 98
B10 | 13
B11 | 58
B12 | 100
B13 | 11
B14 | 83
B15 | 96
B16 | 89
B17 | 61
B18 | 17
B19 | 84
B20 | 56
B21 | 49
B22 | 9
B23 | 86
B24 | 100
B25 | 64
B26 | 84
B27 | 39
B28 | 42

The binders below were run against T3, purified interference factor(s), Donor A (assay: SPR, interference factor immobilized).
T3 construct: also called interference in serum from Donor A

Binder | % of binding of reference (=100%) [%]
B1 | 1
B2 | 9
B3 | 3
B29 | 0
B4 | 1
B5 | 4
B6 | 88
B7 | 1
B8 | 2
B9 | 90
B10 | 2
B11 | 65
B12 | 96
B13 | 1
B14 | 84
B15 | 102

Binder | % of binding of reference (=100%) [%]
B16 | 94
B17 | 56
B18 | 14
B19 | 80
B20 | 70
B21 | 38
B22 | 6
B23 | 76
B24 | 96
B25 | 73
B26 | 81
B27 | 51
B28 | 46
B30 | 0
B31 | 0
B32 | 1
